In the supplement of paper PMC10567573:
± gives the standard deviation.

Assay: protein stability index of a GFP-peptide fusion (GPS, HEK-293T) (PSI 1-6); higher = more stable
[1] = treatment: DMSO, c terminus: a fixed tail appended
[2] = treatment: MLN4924 1 uM, 8 h, c terminus: a fixed tail appended
[3] = treatment: DMSO, c terminus: native
[4] = treatment: MLN4924 1 uM, 8 h, c terminus: native
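Also: 24-mer peptide tiles fused after GFP, lentivirally expressed, FACS-sorted into six equal bins by GFP/DsRed ratio, decoded by Illumina sequencing, PSI is the read-weighted mean bin number.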

Sequence	protein stability index [1]	protein stability index [2]	protein stability index [3]	protein stability index [4]
DDGYSTKDSYSSRDYPSSRDTRDY [RBMX]	4.9 ± 0.25	4.77 ± 0.081		
DEDDEDEDEDEDEDEDEDKEEEEE [TAF7L]	5.46 ± 0.4	5.51 ± 0.1		
DEEKKARRGRSPKGEFKDEEETVT [CLINT1]	5.43 ± 0.28	5.57 ± 0.14		
DEKDRIITAFYNEARARARANRGI [DNAJC4]	4 ± 0.35	4.16 ± 0.17		
DEKQRDPRIEASKVLLCHGELRSK [NET1]	4.42 ± 0.21	4.63 ± 0.22		
DETLRSGELLNMIVAVIDSAQLQE [INTS3]	2.84 ± 0.18	3.06 ± 0.39		
DFGLAARLEPLEHRRRTICGTPNY [PLK2]	3.17 ± 0.28	3.13 ± 0.21		
DFKDFYPAIADLFAESLQCKVDCE [P3H4]	2.84 ± 0.4	3.16 ± 0.62		
DFLAEKESLTEDEATQFLKQILDG [DAPK3]	4.4 ± 0.55			
DFMELGRSIPDTQLEQVIESQKAN [ACSBG2]	5.16 ± 0.26	4.99 ± 0.26		
DFRVKYETELAMRQSVENDIHGLR [KRT18]	3.56 ± 0.2	3.68 ± 0.1		
DFYEAMDDYTSAIEVQPNFEVPYY [TTC32]	2.64 ± 0.23	2.84 ± 0.3		
DGGALLGVLQYRGAELHLQPLEGG [ADAMTS4]	2.06 ± 0.94	2.52 ± 0.73		
DGLDGISVGSYLDTLADDVPGHQT [LURAP1L]	5.12 ± 0.27	4.86 ± 0.22		
DGNKIFLCHCGKAFSHKSMRDRHV [ZBTB22]	2.39 ± 0.4	2.61 ± 0.56		
DILEVKRLLDHQDNILSLINVNDL [WDR41]	2.24 ± 0.4	2.22 ± 0.25		
DILVLLGASLYAISNVCEEYIVKK [SLC35F2]	3.41 ± 0.61	2.89 ± 0.47		
DIRYLLGYVSQQGGQRSTPLIIAA [FEM1B]	2.5 ± 0.41	2.62 ± 0.21		

Sequence	protein stability index [1]	protein stability index [2]	protein stability index [3]	protein stability index [4]
DLGEGKICFCCEEFQPAKCTDKEN [FAM189A2]	4.24 ± 0.34	4.07 ± 0.085		
DLKPENIMLLDKNVPNPRIKLIDF [DAPK3]	2.79 ± 0.084	2.93 ± 0.21		
DLMETTQYMNEGELRVLADTYDSV [HDAC6]	2.69 ± 0.52	3.58 ± 0.51		
DLVAMQWADAAGEAVPEGPDGGGP [ZSWIM9]	4.99 ± 0.33	5.17 ± 0.12		
DLVPKQAIQVQEADEAGWGGSGG [DLX1]			2.96 ± 0.75	3.09 ± 0.087
DMTFEEEAQLLQLKVKCLNNLAAS [FKBP8]	3.42 ± 0.27	3.54 ± 0.46		
DMWSLGCILVEMHTGEPLFSGSNE [DYRK1B]	1.97 ± 0.33	2.15 ± 0.23		
DNAVQGLRRHEILQWVLQTDSQQ [LRRC59]			3.37 ± 0.2	3.44 ± 0.24
DNIVNCNEFLCTLQKKLDNLQCLY [ZNF277]	2.36 ± 0.39	2.07 ± 0.43		
DPNTRPVGEKNCTGPPCDRQWTVS [ADAMTSL2]	4.89 ± 0.15	4.86 ± 0.32		
DPSNRSFFSEIISSVSDVKFSHSG [PPP2R2C]	3.43 ± 0.25	3.44 ± 0.29		
DQEGLQRITGLSPGRSALIVAVLC [SPNS1]	2.31 ± 0.46	2.27 ± 0.35		
DQKVPYIFRDNQWVGFDDVESFKT [CHIT1]	3.67 ± 0.18	3.53 ± 0.28		
DRAPAEQVPRSPVIKISYSTPQGK [PWWP2B]	4.44 ± 0.29	4.52 ± 0.3		
DRLQVFHKRAIMPYGVYKKQQKDP [ATE1]	3.17 ± 0.39	3.34 ± 0.22		
DRLRINRFAWPKVLKISYKRNNFY [EPB41L3]	1.81 ± 0.57	1.69 ± 0.4		
DRTAIRSDTTHLVTLGGVLRQQLV [KLHL13]	2.61 ± 0.28	2.73 ± 0.22		
DRVQVERDGLAEDLAALKQRLEEE [PRPH]	5.49 ± 0.16	5.17 ± 0.25		
